# Experimental data: US20100166741A1 (Genentech, published 2010)
# Key:
# [1] = target: T1, miniBR3 displayed on M13 phage (epitope-tagged, fused to gene-8 major coat protein) (human; bacteriophage M13, UniProt Q96RJ3 17-42); assay: shotgun Ala scan, miniBR3 phage
# T1 construct: range 17-42; also called p-miniBR3
# Source text: Each “partial miniBR3” template was used as the template for Kunkel mutagenesis with mutagenic oligonucleotides designed to replace the template stop codons with the complementary region of miniBR3, while simultaneously introducing mutations at the desired sites. At the sites of mutation, wild-type codons were replaced with the corresponding shotgun alanine codon (Weiss, supra). Each of these two libraries allowed for mutations at 11 residues in miniBR3 with no mutated positions in common between libraries. Library 1 encoded shotgun codons at positions 17, 18, 20-23, 25, 27, 28, 30, and 33, while library 2 encoded shotgun codons at positions 26, 29, 31, 34, and 36-42. Each library contained 2×10⁹ members, allowing for complete representation of the theoretical diversity (>10⁴-fold excess).
# The display selection was included in order to normalize the anti-BR3 antibody-binding selection for expression differences between library members. Phage eluted from each target were propagated in E. coli XL1-blue; amplified phage were used for selection against the same target as in the previous round. After two rounds of selection, 48 individual clones from each library and selection were grown in a 96-well format in 400 L of 2YT medium supplemented with carbenicillin and KO7 helper phage.
# F-values were calculated as previously described (Weiss, supra-, Gordon, supra). […] Deleterious mutations have ratios >1, while advantageous mutations have ratios <1; boldface indicates a >10-fold effect.
# [2] = target: human FcγRIII (CD16) on NK cells (human, UniProt P08637 17-254); assay: cell-based or functional assay
# [3] = target: T2, human FcγRIIb extracellular domain, His-tagged GST fusion (human, UniProt P31994 43-217); assay: ELISA, captured FcγR-GST;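 note: antibody variants applied as dilution series to receptor wells, with retained antibody read out via an HRP-linked goat F(ab′)2 fragment recognizing human Fab′2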
# T2 construct: extracellular domain; also called hFcgRIIb; CD32B; not shown: C-terminal Gly/His6/GST tag
# T2 sequence (looked up): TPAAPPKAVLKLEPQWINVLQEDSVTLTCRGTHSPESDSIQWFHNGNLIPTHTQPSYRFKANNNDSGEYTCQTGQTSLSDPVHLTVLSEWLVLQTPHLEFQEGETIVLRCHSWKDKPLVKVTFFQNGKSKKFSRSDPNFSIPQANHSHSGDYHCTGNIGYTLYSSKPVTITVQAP
# [4] = target: T3, mouse FcγRI extracellular domain, His-tagged GST fusion (mouse, UniProt P26151 25-297); assay: ELISA, captured FcγR-GST;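 note: antibody variants applied as dilution series to receptor wells, with retained antibody read out via an HRP-linked goat F(ab′)2 fragment recognizing human Fab′2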
# T3 construct: extracellular domain; also called Mouse I; mFcγRI; not shown: His tag and GST
# T3 sequence (looked up): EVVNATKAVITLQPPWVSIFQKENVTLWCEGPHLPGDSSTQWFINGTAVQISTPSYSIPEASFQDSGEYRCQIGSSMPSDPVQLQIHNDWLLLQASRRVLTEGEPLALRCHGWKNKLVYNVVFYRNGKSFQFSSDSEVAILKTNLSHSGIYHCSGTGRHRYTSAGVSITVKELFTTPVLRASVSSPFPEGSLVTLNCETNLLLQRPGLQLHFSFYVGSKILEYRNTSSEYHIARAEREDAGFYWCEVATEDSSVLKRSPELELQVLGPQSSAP
# [5] = target: T4, mouse FcγRII extracellular domain, His-tagged GST fusion (mouse, UniProt P08101 30-210); assay: ELISA, captured FcγR-GST;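 note: antibody variants applied as dilution series to receptor wells, with retained antibody read out via an HRP-linked goat F(ab′)2 fragment recognizing human Fab′2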
# T4 construct: extracellular domain; also called Mouse II; not shown: His tag and GST
# T4 sequence (looked up): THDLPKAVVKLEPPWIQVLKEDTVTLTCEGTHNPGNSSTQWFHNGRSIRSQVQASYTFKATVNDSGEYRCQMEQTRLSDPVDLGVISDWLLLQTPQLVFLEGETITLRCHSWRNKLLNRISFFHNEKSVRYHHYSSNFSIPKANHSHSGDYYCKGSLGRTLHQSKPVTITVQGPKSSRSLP
# [6] = target: T5, mouse FcγRIII extracellular domain, His-tagged GST fusion (mouse, UniProt P08508 31-215); assay: ELISA, captured FcγR-GST;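 note: antibody variants applied as dilution series to receptor wells, with retained antibody read out via an HRP-linked goat F(ab′)2 fragment recognizing human Fab′2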
# T5 construct: extracellular domain; also called Mouse III; not shown: His tag and GST
# T5 sequence (looked up): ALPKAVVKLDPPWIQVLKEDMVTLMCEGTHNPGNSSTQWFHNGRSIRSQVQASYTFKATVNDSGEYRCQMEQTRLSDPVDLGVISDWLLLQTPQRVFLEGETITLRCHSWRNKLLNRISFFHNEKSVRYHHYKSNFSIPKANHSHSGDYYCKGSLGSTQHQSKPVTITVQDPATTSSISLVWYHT
# [7] = target: T6, human FcγRI extracellular domain, His-tagged GST fusion (human, UniProt P12314 16-292); assay: ELISA, captured FcγR-GST
# T6 construct: extracellular domain; also called hFcgRI; FcγRIA; not shown: C-terminal Gly/His6/GST tag
# [8] = target: T7, human FcγRIIa extracellular domain, His-tagged GST fusion (human, UniProt P12318 34-217); assay: ELISA, captured FcγR-GST
# T7 construct: extracellular domain; also called hFcgRIIa; CD32A; not shown: C-terminal Gly/His6/GST tag
# T7 sequence (looked up): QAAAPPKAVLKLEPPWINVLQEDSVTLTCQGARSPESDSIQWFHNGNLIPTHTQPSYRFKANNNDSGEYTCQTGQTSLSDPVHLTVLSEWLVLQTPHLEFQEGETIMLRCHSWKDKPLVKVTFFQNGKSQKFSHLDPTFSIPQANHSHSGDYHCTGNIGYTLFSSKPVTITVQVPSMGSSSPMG
# [9] = target: T6, human FcγRI extracellular domain, …; assay: ELISA, captured FcγR-GST, monomeric IgG
# Procedure: (§1) FcγRs were expressed as recombinant fusion proteins of the extracellular domain of the receptor alpha chains with gly/his6/glutathione-s-transferase (GST). Assay plates coated with anti-GST and blocked with BSA were used to capture each FcγR. Plates were washed with wash buffer (0.05% polysorbate 20 in PBS, pH 7.4) after each incubation. […] Bound antibody was detected with the horseradish peroxidase (HRP)-conjugated F(ab′)2 fragment of a goat anti-human IgG F(ab′)₂ (Jackson ImmunoResearch; West Grove, Pa.). Plates were developed with tetramethylbenzidine (TMB) (KPL, Inc.; Gaithersburg, Md.) as the substrate. Absorbance was measured at a wavelength of 450 nm with a reference of 650 nm. Mean absorbance values from duplicate wells were plotted as a function of antibody concentration. Data were fit to a four-parameter equation to determine the concentration that yields 50% of maximum binding to each FcγR (EC₅₀) for each antibody.
# [10] = target: T2, human FcγRIIb extracellular domain, …; assay: ELISA, captured FcγR-GST, multimeric IgG
# Procedure: as §1
# [11] = target: T7, human FcγRIIa extracellular domain, …; assay: ELISA, captured FcγR-GST, multimeric IgG
# Procedure: as §1
binder,measurement,setting,value
"2.1 (antibody, V domains shown, also called chimeric 2.1) VH: EVQLQESGPSLVKPSQTLSLTCSVTGDSITRGYWNWIRKFPGNKLEFMGYINYSGTTYYNPSLKSRISITRDTSKNQYYLQLNSVTTEDTATYYCATPHTYGAMDYWGQGTTLTVSA VL: DIVLTQSPVSLAVSLGQRATISCRASESVDDYGISFMHWYQQKPGQPPKLLIYRASDLESGIPARFSGSGSGTDFTLTINPVETDDVAIYYCQQTSKDPWTFGGGT","F value, mutation at BR3 A22",[1],3.2
same,"F value, mutation at BR3 A34",[1],62
same,"F value, mutation at BR3 D26",[1],6.1
same,"F value, mutation at BR3 E23",[1],9.6
same,"F value, mutation at BR3 F25",[1],49
same,"F value, mutation at BR3 G36",[1],14
same,"F value, mutation at BR3 H31",[1],0.6
same,"F value, mutation at BR3 L27",[1],0.8
same,"F value, mutation at BR3 L28",[1],0.1
same,"F value, mutation at BR3 L37",[1],0.1
same,"F value, mutation at BR3 L38",[1],0.9
same,"F value, mutation at BR3 P18",[1],0.5
same,"F value, mutation at BR3 P21",[1],1.9
same,"F value, mutation at BR3 P41",[1],0.7
same,"F value, mutation at BR3 R30",[1],10
same,"F value, mutation at BR3 R39",[1],0.5
same,"F value, mutation at BR3 R42",[1],1.8
same,"F value, mutation at BR3 T17",[1],0.6
same,"F value, mutation at BR3 T40",[1],0.2
same,"F value, mutation at BR3 V20",[1],3
same,"F value, mutation at BR3 V29",[1],0.5
same,"F value, mutation at BR3 V33",[1],10
"9.1(5) (antibody, human IgG1, kappa, Fc variant of 9.1RF, expressed in CHO; also called 9.1RF S298A/K326A/E333A/K334A) heavy: EVQLVESGGGLVQPGGSLRLSCAASGFTVTAYYMSWVRQAPGKGLEWVGFIRDKANGYTTEYNPSVKGRFTISRDTSKNTFYLQMNSLRAEDTAVYYCAQVRRALDYWGQGTLVTVSSASTKGPSVFPLAPSSKSTSGGTAALGCLVKDYFPEPVTVSWNSGALTSGVHTFPAVLQSSGLYSLSSVVTVPSSSLGTQTYICNVNHKPSNTKVDKKVEPKSCDKTHTCPPCPAPELLGGPSVFLFPPKPKDTLMISRTPEVTCVVVDVSHEDPEVKFNWYVDGVEVHNAKTKPREEQYNATYRVVSVLTVLHQDWLNGKEYKCKVSNAALPAPIAATISKAKGQPREPQVYTLPPSREEMTKNQVSLTCLVKGFYPSDIAVEWESNGQPENNYKTTPPVLDSDGSFFLYSKLTVDKSRWQQGNVFSCSVMHEALHNHYTQKSLSLSPG light: DIQMTQSPSSLSASVGDRVTITCKSSQSLLYSSNQNNYLAWYQQKPGKAPKLLIYWASTRESGVPSRFSGSGSGTDFTLTISSLQPEDFATYYCQQYYTYPYTFGQGTKVEIKRTVAAPSVFIFPPSDEQLKSGTASVVCLLNNFYPREAKVQWKVDNALQSGNSQESVTEQDSKDSTYSLSSTLTLSKADYEKHKVYACEVTHQGLSSPVTKSFNRGEC","ADCC on BJAB cells with NK cells, relative fold increase compared to 9.1RF",[2],3 fold
same,fold improvement in binding vs Herceptin (EC50herceptin/EC50sample),[3],0.7 fold
same,fold improvement in binding vs Herceptin (EC50herceptin/EC50sample),[4],1.9 fold
same,fold improvement in binding vs Herceptin (EC50herceptin/EC50sample),[5],1.3 fold
same,fold improvement in binding vs Herceptin (EC50herceptin/EC50sample),[6],1.2 fold
same,fold improvement in binding vs Herceptin (EC50herceptin/EC50sample),[7],0.6 fold
same,fold improvement in binding vs Herceptin (EC50herceptin/EC50sample),[8],0.2 fold
"Hu9.1RF IgG1 6% G0-F (antibody, expected 6% G0-F (determined 6%), Mixture of 37% G0-F and 2% G0-F Hu9.1RF IgG1) heavy: not shown light: DIQMTQSPSSLSASVGDRVTITCKSSQSLLYSSNQNNYLAWYQQKPGKAPKLLIYWASTRESGVPSRFSGSGSGTDFTLTISSLQPEDFATYYCQQYYTYPYTFGQGTKVEIKRTVAAPSVFIFPPSDEQLKSGTASVVCLLNNFYPREAKVQWKVDNALQSGNSQESVTEQDSKDSTYSLSSTLTLSKADYEKHKVYACEVTHQGLSSPVTKSFNRGEC",EC50,[9],4.12 ng/mL
same,EC50,[10],0.91 µg/mL
same,EC50,[11],0.23 µg/mL
"Hu9.1RF IgG1 10% G0-F (antibody, expected 10% G0-F (determined 8%), Mixture of 37% G0-F and 2% G0-F Hu9.1RF IgG1) heavy: not shown light: DIQMTQSPSSLSASVGDRVTITCKSSQSLLYSSNQNNYLAWYQQKPGKAPKLLIYWASTRESGVPSRFSGSGSGTDFTLTISSLQPEDFATYYCQQYYTYPYTFGQGTKVEIKRTVAAPSVFIFPPSDEQLKSGTASVVCLLNNFYPREAKVQWKVDNALQSGNSQESVTEQDSKDSTYSLSSTLTLSKADYEKHKVYACEVTHQGLSSPVTKSFNRGEC",EC50,[9],3.91 ng/mL
same,EC50,[10],0.88 µg/mL
same,EC50,[11],0.24 µg/mL
"Hu9.1RF IgG1 2% G0-F (antibody, 2% G0-F (afucosylated) Fc glycan content, Same protein as Hu9.1RF IgG1; glycoform composition; also called 2% G0-F GLP-Hu9.1RF IgG1; 2% afucosylated Hu9.1RF IgG1) heavy: not shown light: DIQMTQSPSSLSASVGDRVTITCKSSQSLLYSSNQNNYLAWYQQKPGKAPKLLIYWASTRESGVPSRFSGSGSGTDFTLTISSLQPEDFATYYCQQYYTYPYTFGQGTKVEIKRTVAAPSVFIFPPSDEQLKSGTASVVCLLNNFYPREAKVQWKVDNALQSGNSQESVTEQDSKDSTYSLSSTLTLSKADYEKHKVYACEVTHQGLSSPVTKSFNRGEC",EC50,[9],3.92 ng/mL
same,EC50,[10],0.96 µg/mL
same,EC50,[11],0.3 µg/mL
"Hu9.1RF IgG1 4% G0-F (antibody, expected 4% G0-F (determined 3%), Mixture of 37% G0-F and 2% G0-F Hu9.1RF IgG1) heavy: not shown light: DIQMTQSPSSLSASVGDRVTITCKSSQSLLYSSNQNNYLAWYQQKPGKAPKLLIYWASTRESGVPSRFSGSGSGTDFTLTISSLQPEDFATYYCQQYYTYPYTFGQGTKVEIKRTVAAPSVFIFPPSDEQLKSGTASVVCLLNNFYPREAKVQWKVDNALQSGNSQESVTEQDSKDSTYSLSSTLTLSKADYEKHKVYACEVTHQGLSSPVTKSFNRGEC",EC50,[9],3.73 ng/mL
same,EC50,[10],0.95 µg/mL
same,EC50,[11],0.26 µg/mL
"Hu9.1RF IgG1 20% G0-F (antibody, expected 20% G0-F (determined 23%), Mixture of 37% G0-F and 2% G0-F Hu9.1RF IgG1) heavy: not shown light: DIQMTQSPSSLSASVGDRVTITCKSSQSLLYSSNQNNYLAWYQQKPGKAPKLLIYWASTRESGVPSRFSGSGSGTDFTLTISSLQPEDFATYYCQQYYTYPYTFGQGTKVEIKRTVAAPSVFIFPPSDEQLKSGTASVVCLLNNFYPREAKVQWKVDNALQSGNSQESVTEQDSKDSTYSLSSTLTLSKADYEKHKVYACEVTHQGLSSPVTKSFNRGEC",EC50,[9],3.74 ng/mL
same,EC50,[10],0.82 µg/mL
same,EC50,[11],0.17 µg/mL
"9.1(7) (antibody, human IgG1, kappa, Fc variant of 9.1RF, expressed in CHO; also called 9.1RF 239D/332E) heavy: not shown light: DIQMTQSPSSLSASVGDRVTITCKSSQSLLYSSNQNNYLAWYQQKPGKAPKLLIYWASTRESGVPSRFSGSGSGTDFTLTISSLQPEDFATYYCQQYYTYPYTFGQGTKVEIKRTVAAPSVFIFPPSDEQLKSGTASVVCLLNNFYPREAKVQWKVDNALQSGNSQESVTEQDSKDSTYSLSSTLTLSKADYEKHKVYACEVTHQGLSSPVTKSFNRGEC","ADCC on BJAB cells with NK cells, relative fold increase compared to 9.1RF",[2],7 fold
same,fold improvement in binding vs Herceptin (EC50herceptin/EC50sample),[3],17 fold
same,fold improvement in binding vs Herceptin (EC50herceptin/EC50sample),[4],62 fold
same,fold improvement in binding vs Herceptin (EC50herceptin/EC50sample),[5],19 fold
same,fold improvement in binding vs Herceptin (EC50herceptin/EC50sample),[6],9.9 fold
same,fold improvement in binding vs Herceptin (EC50herceptin/EC50sample),[7],0.7 fold
same,fold improvement in binding vs Herceptin (EC50herceptin/EC50sample),[8],5.3 fold
